Measured values taken from publication PMC7160673, “A Degenerate Peptide Library Approach to Reveal Sequence Determinants of Methyllysine-Driven Protein Interactions” (Frontiers in Cell and Developmental Biology, 2020).
Like-named read-outs stand apart in the source and are kept apart here.

Assays:
[1] = molecular target: biotinylated H3(1-20)K9me2 peptide; test: Kme-OPL pulldown fluorescence assay (GST-tagged reader domain); conditions: parent: est. 1300; read off a plot
[2] = molecular target: FAM-KAK(Kme3)TGK peptide (human); test: fluorescence polarisation; protein serially diluted with 10 nM FAM peptide; 25 mM HEPES pH 7.5, 100 mM NaCl, 0.05% NP-40; anisotropy fitted by specific binding with Hill slope
[3] = molecular target: FAM-KAK(Kme3)TGK peptide (human); test: as above; remark: listed apart in the source
[4] = molecular target: FAM-TAR(Kme3)STG peptide (H3K9me3); test: as above
[5] = molecular target: FAM-WAY(Kme3)TGK peptide; test: as above

Chain of M Phase Phosphoprotein 8 chromodomain (Q99549 55-116): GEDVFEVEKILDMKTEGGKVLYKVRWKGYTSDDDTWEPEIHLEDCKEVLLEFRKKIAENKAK

Row | response (RFU (GST-subtracted fluorescence)) [1] | Kd [2] [nM] | fold tighter than the H3K9me3 peptide [2] [fold] | Kd [3] [nM] | Kd [4] [nM] | fold tighter than the H3K9me3 peptide [5] [fold] | Substance
1 | 150 | – | – | – | – | – | M Phase Phosphoprotein 8 chromodomain (from UniProt Q99549) W80A
2 | – | 840 | 10 | 660 | 5400 | – | M Phase Phosphoprotein 8 chromodomain (from UniProt Q99549 55-116) (domain or fragment)
3 | – | 3600 | – | – | – | 100 | Chromodomain Y-like protein 2 chromodomain (domain or fragment)
